According to IntAct's records for PubMed 21321230:

B1: Netrin receptor DCC (Rattus norvegicus (Rat)), Q63155 (parent)
chain: MENSLGCVWVPKLAFVLFGASLLSAHLQVTGFQIKPFTSLHFVSEPSDAVTMRGGNVLLNCSAESDRGVPVIKWKKDGLILALGMDDRKQQLPNGSLLIQNILHSRHHKPDEGLYQCEASLGDSGSIISRTAKVMVAGPLRFLSQTESITAFMGDTVLLKCEVIGDPMPTIHWQKNQQDLNPIPGDSRVVVLPSGALQISRLQPGDSGVYRCSARNPASTRTGNEAEVRILSDPGLHRQLYFLQRPSNVIAIEGKDAVLECCVSGYPPPSFTWLRGEEVIQLRSKKYSLLGGSNLLISNVTDDDSGTYTCVVTYKNENISASAELTVLVPPWFLNHPSNLYAYESMDIEFECAVSGKPVPTVNWMKNGDVVIPSDYFQIVGGSNLRILGVVKSDEGFYQCVAENEAGNAQSSAQLIVPKPAIPSSSILPSAPRDVVPVLVSSRFVRLSWRPPAEAKGNIQTFTVFFSREGDNRERALNTTQPGSLQLTVGNLKPEAMYTFRVVAYNEWGPGESSQPIKVATQPELQVPGPVENLHAVSASPTSILITWEPPAYANGPVQGYRLFCTEVSTGKEQNIEVDGLSYKLEGLKKFTEYTLRFLAYNRYGPGVSTDDITVVTLSDVPSAPPQNVSLEVVNSRSIKVSWLPPPSGTQNGFITGYKIRHRKTTRRGEMETLEPNNLWYLFTGLEKGSQYSFQVSAMTVNGTGPPSNWYTAETPENDLDESQVPDQPSSLHVRPQTNCIIMSWTPPLNPNIVVRGYIIGYGVGSPYAETVRVDSKQRYYSIERLESSSHYVISLKAFNNAGEGVPLYESATTRSITDPTDPVDYYPLLDDFPTSGPDVSTPMLPPVGVQAVALTHEAVRVSWADNSVPKNQKTSDVRLYTVRWRTSFSASAKYKSEDTTSLSYTATGLKPNTMYEFSVMVTKNRRSSTWSMTAHATTYEAAPTSAPKDLTVITREGKPRAVIVSWQPPLEANGKITAYILFYTLDKNIPIDDWIMETISGDRLTHQIMDLSLDTMYYFRIQARNAKGVGPLSDPILFRTLKVEHPDKMANDQGRHGDGGYWPVDTNLIDRSTLNEPPIGQMHPPHGSVTPQKNSNLLVITVVTVGVLTVLVVVIVAVICTRRSSAQQRKKRATHSASKRKGSQKDLRPPDLWIHHEEMEMKNIEKPAGTDPAGRGSPIQSCQDLTPVSHSQSESQMGSKSASHSGQDTEEAGSSMSTLERSLAARRATRTKLMIPMEAQSNNPAVVSAIPVPTLESAQYPGILPSPTCGYPHPQFTLRPVPFPTLSVDRGFGAGRTVSEGPTAQQQPMLPPAQPEHPSSEEAPSRTIPTACVRPTHPLRSFANPLLPPPMSAIEPKVPYTPLLSQPGPTLPKTHVKTASLGLAGKARSPLLPVSVPTAPEVSEESHKPTEDPASVYEQDDLSEQMASLEGLMKQLNAITGSAF

Variants of: B1
Details: with myo10_human MYO10, Q9HD67
Chain of myo10_human MYO10, Q9HD67 (Q9HD67 whole entry): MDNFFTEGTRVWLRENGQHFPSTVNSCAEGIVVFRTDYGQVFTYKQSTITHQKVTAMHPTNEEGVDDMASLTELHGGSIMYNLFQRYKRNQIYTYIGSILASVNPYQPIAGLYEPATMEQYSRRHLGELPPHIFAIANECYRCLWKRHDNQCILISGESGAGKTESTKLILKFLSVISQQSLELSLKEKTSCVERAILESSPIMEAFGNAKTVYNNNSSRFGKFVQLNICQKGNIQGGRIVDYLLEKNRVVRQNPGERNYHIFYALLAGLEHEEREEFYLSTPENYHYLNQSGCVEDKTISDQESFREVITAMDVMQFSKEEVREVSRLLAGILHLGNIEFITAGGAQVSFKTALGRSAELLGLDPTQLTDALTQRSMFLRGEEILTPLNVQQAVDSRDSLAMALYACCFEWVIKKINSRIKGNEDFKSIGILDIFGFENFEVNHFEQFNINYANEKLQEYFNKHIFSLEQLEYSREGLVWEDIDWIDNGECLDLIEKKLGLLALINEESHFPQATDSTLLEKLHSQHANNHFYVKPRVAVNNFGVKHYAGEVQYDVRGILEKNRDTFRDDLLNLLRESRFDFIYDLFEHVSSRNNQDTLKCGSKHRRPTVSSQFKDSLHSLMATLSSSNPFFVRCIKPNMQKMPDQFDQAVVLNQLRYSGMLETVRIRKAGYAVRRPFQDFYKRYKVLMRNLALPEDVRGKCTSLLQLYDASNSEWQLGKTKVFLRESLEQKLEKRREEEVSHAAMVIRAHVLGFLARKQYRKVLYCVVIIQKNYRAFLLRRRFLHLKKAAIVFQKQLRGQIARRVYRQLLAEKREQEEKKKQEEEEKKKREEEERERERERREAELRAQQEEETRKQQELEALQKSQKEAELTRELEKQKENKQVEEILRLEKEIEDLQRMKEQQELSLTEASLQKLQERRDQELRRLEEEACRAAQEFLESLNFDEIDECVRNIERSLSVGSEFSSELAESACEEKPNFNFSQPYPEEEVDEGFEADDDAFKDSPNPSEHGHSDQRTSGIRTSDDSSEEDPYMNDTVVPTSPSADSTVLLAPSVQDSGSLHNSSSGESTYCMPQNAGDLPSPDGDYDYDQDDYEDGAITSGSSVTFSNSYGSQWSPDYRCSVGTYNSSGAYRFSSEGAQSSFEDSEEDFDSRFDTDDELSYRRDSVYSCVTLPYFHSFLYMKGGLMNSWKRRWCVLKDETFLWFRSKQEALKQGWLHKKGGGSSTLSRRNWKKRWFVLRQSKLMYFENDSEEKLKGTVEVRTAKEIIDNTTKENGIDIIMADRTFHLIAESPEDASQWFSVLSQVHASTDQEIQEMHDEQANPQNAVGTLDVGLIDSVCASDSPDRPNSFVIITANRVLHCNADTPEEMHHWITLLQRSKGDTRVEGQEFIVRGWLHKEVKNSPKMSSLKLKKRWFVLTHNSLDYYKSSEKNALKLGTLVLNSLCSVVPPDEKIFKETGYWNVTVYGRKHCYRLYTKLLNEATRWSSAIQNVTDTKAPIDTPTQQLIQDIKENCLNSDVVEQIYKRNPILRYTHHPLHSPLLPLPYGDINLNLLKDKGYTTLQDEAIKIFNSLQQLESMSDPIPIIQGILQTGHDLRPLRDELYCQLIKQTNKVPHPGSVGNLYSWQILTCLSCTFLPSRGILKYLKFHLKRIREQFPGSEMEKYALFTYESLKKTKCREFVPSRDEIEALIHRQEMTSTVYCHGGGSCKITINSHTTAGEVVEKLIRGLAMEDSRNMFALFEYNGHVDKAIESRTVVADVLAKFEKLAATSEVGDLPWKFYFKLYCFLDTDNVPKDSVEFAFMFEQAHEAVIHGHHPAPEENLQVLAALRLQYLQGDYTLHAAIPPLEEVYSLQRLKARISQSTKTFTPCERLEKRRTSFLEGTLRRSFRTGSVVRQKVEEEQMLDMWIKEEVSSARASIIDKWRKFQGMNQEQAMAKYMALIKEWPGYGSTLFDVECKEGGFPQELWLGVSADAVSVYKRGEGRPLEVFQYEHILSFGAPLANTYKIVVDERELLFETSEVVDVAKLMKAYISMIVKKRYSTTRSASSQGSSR

effect of a mutation on the interaction | Variant
disrupting interaction strength | L1433A
disrupting interaction strength | L1437A
